Data from US20070148201A1 (Pieris, published 2007).
Blank lines part the entries; values can stand above or below the binder they belong to.

How the values were obtained:
[1] = target: fusion construct of the CD4 V-domain and CD4 D1-domain of the human CD4 coreceptor (amino acids 1-184) with … (human, UniProt P01730 26-209); test: ELISA, mutein coated on plate, digoxigenin-conjugated CD4-VD1 titrated from 2000 nM, anti-digoxigenin Fab-AP detection, apparent KD from curve fit
Method: (§1) After washing five times with 100 μl PBST/0.05 per well employing an automated ELISA plate washer, the wells were filled with 100 μl PBST containing 3% w/v non-fat dry milk powder (Vitalia), in order to saturate unspecific binding sites and incubated for one hour at room temperature. After blocking, the microtiter plate was washed two times with 100 μl PBST/0.05 as described above.
(§2) Then a dilution series of conjugates of digoxigenin and either the prescribed protein target CD4-VD1 or the unrelated control protein RNaseB, both produced as described in Example 25, was prepared in PBST starting from 2000 nM concentration and incubated for 1 h at room temperature. Subsequently, plates were washed again five times like above and 20 μl of an anti-digoxigenin-Fab-fragment-alkaline phosphatase-conjugate (Roche), diluted 1:1000 in PBST was added to each well and incubated for 1 hour at room temperature. Plates were washed again five times as described above and 20 μl of the fluorogenic substrate AttoPhos (Roche; prepared as described by the manufacturer) was added to detect bound CD4-VD1 by means of the attached digoxigenin groups. After 10 minutes at room temperature fluorescence was excited at a wavelength of 430 nm (±17.5 nm) and measured at 535 nm (÷12.5 nm) in a GENiosPlus plate reader.
The resulting binding curves were fitted by non-linear least squares regression as described in Example 8 and are depicted in FIG. 14 and FIG. 15. The values obtained for the apparent dissociation constants of the complexes between the BBP muteins CD4-2C3-K20, CD4-2C3-N22, CD4-2G3-H22, CD4-2G3-L22, CD4-7B4-K21, CD4-7B4-K23, and CD4-7B4-N14 and the prescribed target protein CD4-VD1 as well as for the complexes between the BBP muteins and the control protein RNaseB are summarized in Table 11.

RNaseB [2] = target: T1, RNaseB (UniProt P61823 27-150); test: ELISA: BBP mutein coated on the plate, digoxigenin-conjugated RNaseB titrated 0-2000 nM, detected with anti-digoxigenin Fab-alkaline phosphatase, fluorescence (Example 27)
T1 construct: also called unrelated control protein RNaseB
T1 sequence (looked up): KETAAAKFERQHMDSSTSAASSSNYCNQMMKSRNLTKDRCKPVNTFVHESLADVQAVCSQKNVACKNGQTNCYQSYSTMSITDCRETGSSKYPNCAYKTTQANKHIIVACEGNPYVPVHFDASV
Method: as §1, §2

[3] = target: T2, extracellular domain of human CD154 (human, UniProt P29965 47-261); test: ELISA, CD154 coated on plate, mutein titrated from 2000 nM, anti-Strep-tag II-HRP detection, apparent KD from curve fit
T2 construct: extracellular domain; Colony screening: conjugate with digoxigenin
T2 sequence (looked up): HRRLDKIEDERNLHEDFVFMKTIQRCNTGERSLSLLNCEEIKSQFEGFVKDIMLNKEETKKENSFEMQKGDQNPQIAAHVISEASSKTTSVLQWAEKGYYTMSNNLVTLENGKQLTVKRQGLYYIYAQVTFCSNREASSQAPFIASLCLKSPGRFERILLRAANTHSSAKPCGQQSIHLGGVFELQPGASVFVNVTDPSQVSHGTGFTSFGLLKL
Method: as §1
Then a dilution series of the muteins from Example 16 in SA-buffer was prepared in PBST starting from 2000 nM concentration and incubated for 1 h at room temperature. Subsequently, plates were washed again five times like above and 20 μl of an anti-Strep-tag® II monoclonal antibody-HRP-conjugate (IBA), diluted 1:1000 in PBST was added to each well and incubated for 1 hour at room temperature. Plates were again washed five times as described above and 20 μl of the fluorogenic HRP-substrate QuantaBlu™ (diluted as described by the manufacturer) was added to detect bound BBP muteins by means of the attached anti-Strep-tag® II monoclonal antibody-HRP-conjugate. After 10 minutes at room temperature fluorescence was excited at a wavelength of 320 nm (±12.5 nm) and measured at 430 nm (±17.5 nm) in a GENiosPlus plate reader.
The resulting binding curves were fitted by non-linear least squares regression as described in Example 8 and are depicted in FIG. 11. […]

BSA = target: T3, BSA (UniProt P02769 25-607); test: ELISA: BSA coated on the plate as control, BBP mutein titrated 0-2000 nM, detected with anti-Strep-tag II antibody-HRP, fluorescence (Example 17)
T3 construct: Control protein coated on the ELISA plate; also called unrelated control protein BSA
T3 sequence (P02769 25-607 limits assumed): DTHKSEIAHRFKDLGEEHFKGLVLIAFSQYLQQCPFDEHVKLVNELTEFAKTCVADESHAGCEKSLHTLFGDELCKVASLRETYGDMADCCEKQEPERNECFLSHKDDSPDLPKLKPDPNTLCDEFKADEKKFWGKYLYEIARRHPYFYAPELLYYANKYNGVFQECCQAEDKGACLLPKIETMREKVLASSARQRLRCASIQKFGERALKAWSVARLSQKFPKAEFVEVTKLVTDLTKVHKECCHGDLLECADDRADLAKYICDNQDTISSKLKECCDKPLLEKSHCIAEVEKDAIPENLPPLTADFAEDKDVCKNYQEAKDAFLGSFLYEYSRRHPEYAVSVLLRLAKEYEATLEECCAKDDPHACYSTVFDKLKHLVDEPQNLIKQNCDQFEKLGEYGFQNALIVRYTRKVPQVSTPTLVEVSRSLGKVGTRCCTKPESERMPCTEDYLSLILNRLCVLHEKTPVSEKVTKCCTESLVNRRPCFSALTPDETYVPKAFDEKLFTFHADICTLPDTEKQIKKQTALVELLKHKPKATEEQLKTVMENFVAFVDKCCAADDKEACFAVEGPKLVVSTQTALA

RNaseB [4] = target: T1, RNaseB; test: ELISA, RNaseB coated on plate, anti-T7-HRP detection
Method: (§3) Afterwards, the wells were washed and blocked as described in Example 8.
(§4) Then, a dilution series of the BBP muteins from Example 11 in SA-buffer was prepared in PBST starting from 1000 nM concentration and incubated for 1 h at room temperature. Subsequently, plates were washed again five times, anti-T7 monoclonal antibody-HRP-conjugate was added and incubated for 1 hour at room temperature followed by washing and addition of fluorogenic HRP-substrate QuantaBlu™ as described in Example 8. After 10 minutes at room temperature fluorescence was excited at a wavelength of 320 nm (±12.5 nm) and measured at 430 nm (±17.5 nm) in a GENiosPlus plate reader.

type I horse ferritin [5] = target: T4, type I horse ferritin (horse, UniProt P02791 2-175; Q8MIP0 2-182, limits assumed); test: ELISA, ferritin coated on plate, mutein titrated from 1000 nM, anti-T7-HRP detection, apparent KD from curve fit
T4 construct: the natural protein is a shell of light and heavy chains
T4 sequence (P02791 2-175 limits assumed, chain 1 of 2): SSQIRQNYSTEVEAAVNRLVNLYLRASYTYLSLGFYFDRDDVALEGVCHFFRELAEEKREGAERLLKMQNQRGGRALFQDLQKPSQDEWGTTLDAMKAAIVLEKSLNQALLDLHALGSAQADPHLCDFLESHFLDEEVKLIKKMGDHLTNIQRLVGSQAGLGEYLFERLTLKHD
T4 sequence (Q8MIP0 2-182 limits assumed, chain 2 of 2): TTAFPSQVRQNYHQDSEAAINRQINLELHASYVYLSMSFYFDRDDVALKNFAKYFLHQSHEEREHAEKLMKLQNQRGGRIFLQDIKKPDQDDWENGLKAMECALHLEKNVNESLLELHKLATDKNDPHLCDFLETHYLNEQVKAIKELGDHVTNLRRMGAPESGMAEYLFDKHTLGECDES
Method: as §3, §4
The resulting binding curves were fitted by non-linear least squares regression as described in Example 8 and are depicted in FIG. 8. The values obtained for the apparent dissociation constants of the complexes between the BBP muteins and the prescribed target ferritin are summarized in Table 5.

type I horse ferritin [6] = target: T4, type I horse ferritin; test: high-throughput ELISA screening, crude cell extract, ferritin or aldolase coated on plate, anti-T7-HRP detection; Fer-N22 is one of the clones taken on from these 14
Method: (§5) For the detection of binding, these cell extracts were tested for their reactivity on the prescribed target type I horse ferri tin as well as the unrelated control protein aldolase in ELISA experiments. Therefore, wells of black Fluotrac 600 ELISA plates (Greiner; 384 well) were coated overnight with 20 μl of a solution of ferritin (Sigma) or aldolase (Roche) at 4° C., each at a concentration of 20 μg/ml in PBS. Plates were washed five times with 100 μl PBST/0.05 per well with an automated ELISA plate washer (Molecular Devices) leaving a residual volume of 10 μl of the washing buffer in each well after the last washing step. Residual binding sites were blocked by incubation with 100 μl PBST/0.05 containing 2% w/v BSA for 2 h at room temperature. Afterwards, plates were again washed five times as described above.
(§6) For complex formation between the BBP muteins and the immobilized proteins, the wells were incubated with 10 μl of the blocked cell extract from above for 1 hour at room temperature. […] After 60 minutes at room temperature fluorescence was excited at a wavelength of 320 nm (±12.5 nm) and measured at 430 nm (±17.5 nm) in a GENiosPlus plate reader (Tecan).

type I horse ferritin [7] = target: T4, type I horse ferritin; test: high-throughput ELISA screening, crude cell extract, ferritin or aldolase coated on plate, anti-T7-HRP detection; Fer-I21 is one of the clones taken on from these 14
Method: as §5, §6

- Kd [3]: 174 nM
- binding result (BSA): no binding (tested: 2000 nM)
B5: BBP mutein CD154-13-10-4 (designed binder)
chain: DVYHDGACPEVKPVDNFDWSQYHGKWWEVAKYPNSHETGGKCGWAEYTPEGKSVKVSNYHVITPHERFIEGTAYPVGDSKIGKIYHSLTWIGTTKENVFNVLSTDNKNYIIGYYCSYSEAGKGHQDFVWVLSRSMVLTGEAKTAVENYLIGSPVVDSQKLVYSDFSEAACKVNN

- Kd [1]: 177 nM
- binding result (RNaseB [2]): no binding (tested: 2000 nM)
B6: BBP mutein CD4-7B4-N14 (designed binder)
chain: DVYHDGACPEVKPVDNFDWSQYHGKWWEVAKYPNRAEIGGKCGWAEYTPEGKSVKVSNYHVIKQWEKFIEGTAYPVGDSKIGKIYHSLTGTGSTKENVFNVLSTDNKNYIIGYYCNYHESRKGHRDFVWVLSRSMVLTGEAKTAVENYLIGSPVVDSQKLVYSDFSEAACKVNN

- Kd [3]: 89 nM
- binding result (BSA): no binding (tested: 2000 nM)
B7: BBP mutein CD154-13-10-1 (designed binder)
chain: DVYHDGACPEVKPVDNFDWSQYHGKWWEVAKYPNQIEQGGKCGWAEYTPEGKSVKVSNYHVIYASEDFIEGTAYPVGDSKIGKIYHSLTSSGVTKENVFNVLSTDNKNYIIGYYCGYREAPKGHMDFVWVLSRSMVLTGEAKTAVENYLIGSPVVDSQKLVYSDFSEAACKVNN

- Kd (type I horse ferritin [5]): 45 nM
- signal-to-control ratio (ferritin against aldolase) (type I horse ferritin [6]): > 5
B9: BBP mutein Fer-N22 (designed binder)
chain: DVYHDGACPEVKPVDNFDWSQYHGKWWEVAKYPNGGESPGKCGWAEYTPEGKSVKVSNYHVIKKRERFIEGTAYPVGDSKIGKICHSLTWSGLTKENVFNVLSTDNKNYIIGYYCKYKERKKGHGDFVWVLSRSMVLTGEAKTAVENYLIGSPVVDSQKLVYSDFSEAACKVNN
notes: Tested as expressed from pBBP47: C-terminal T7 tag followed by Strep-tag II
- binding result (RNaseB [4]): no binding (tested: dilution series starting from 1000 nM)

- Kd (type I horse ferritin [5]): 26 nM
- signal-to-control ratio (ferritin against aldolase) (type I horse ferritin [7]): > 5
B10: BBP mutein Fer-I21 (designed binder)
chain: DVYHDGACPEVKPVDNFDWSQYHGKWWEVAKYPNQKEKWGKCGWAEYTPEGKSVKVSNYHVIKRPERFIEGTAYPVGDSKIGKIYHSLTRLGKTKENVFNVLSTDNKNYIIGYYCLYPEGWKGHKDFVWVLSRSMVLTGEAKTAVENYLIGSPVVDSQKLVYSDFSEAACKVNN
notes: as for B9
- binding result (RNaseB [4]): no binding (tested: dilution series starting from 1000 nM)

More lines, now with the values behind:

B1: BBP mutein CD4-2G3-L22 (designed binder)
chain: DVYHDGACPEVKPVDNFDWSQYHGKWWEVAKYPNIAELGGKCGWAEYTPEGKSVKVSNYHVINWNEMFIEGTAYPVGDSKIGKISHSLTKVGQTKENVFNVLSTDNKNYIIGYYCQYSERAKGHLDFVWVLSRSMVLTGEAKTAVENYLIGSPVVDSQKLVYSDFSEAACKVNN
- Kd [1]: 200 nM
- binding result (RNaseB [2]): no binding (tested: 2000 nM)

B2: BBP mutein CD4-2C3-N22 (designed binder)
chain: DVYHDGACPEVKPVDNFDWSQYHGKWWEVAKYPNAKESPGKCGWAEYTPEGKSVKVSNYHVIQRLEGFIEGTAYPVGDSKIGKIYHSLTTWGLTKENVFNVLSTDNKNYIIGYYCGYVEKSKGHPDFVWVLSRSMVLTGEAKTAVENYLIGSPVVDSQKLVYSDFSEAACKVNN
- Kd [1]: 185 nM
- binding result (RNaseB [2]): no binding (tested: 2000 nM)

B3: BBP mutein CD4-2C3-K20 (designed binder)
chain: DVYHDGACPEVKPVDNFDWSQYHGKWWEVAKYPNTSEHSGKCGWAEYTPEGKSVKVSNYHVIKKKERFIEGTAYSAGDSKIGKIYHSLTSVGKTKENVFNVLSTDNKNYIIGYYCSYKEKTKGHGDFVWVLSRSMVLTGEAKTAVENYLIGSPVVDSQKLVYSDFSEAACKVNN
- Kd [1]: 136 nM
- binding result (RNaseB [2]): no binding (tested: 2000 nM)

B4: BBP mutein CD4-7B4-K23 (designed binder)
chain: DVYHDGACPEVKPVDNFDWSQYHGKWWEVAKYPNGNELRGKCGWAEYTPEGKSVKVSNYHVINTSEGFIEGTAYPVGDSKIGKIYHSLTNTGMTKENVFNVLSTDNKNYIIGYYCSWEVSKGHHDFVWVLSRSMVLTGEAKTAVENYLIGSPVVDSQKLVYSDFSEAACKVNNS
- Kd [1]: 169 nM
- binding result (RNaseB [2]): no binding (tested: 2000 nM)

B8: BBP mutein CD4-2G3-H22 (designed binder)
chain: DVYHDGACPEVKPVDNFDWSQYHGKWWEVAKYPNMTEVKGKCGWAEYTPEGKSVKVSNYHVIREKEWFIEGTAYPVGDSKIGKIYHSLTISGLTKENVFNVLSTDDKNYIIGYYCKYMELWKGHRDFVWVLSRSMVLTGEAKTAVENYLIGSPVVDSQKLVYSDFSEAACKVNN
- Kd [1]: 105 nM
- binding result (RNaseB [2]): no binding (tested: 2000 nM)
